Data as given in the RNAGym collection of RNA variant scans (doi:10.1021/acssynbio.7b00057).

B1: Pistol ribozyme (parent)
chain: GGGUCGUUGUUCCAUAAUCGCGUGGAUAUGGCACGCAAGUUUCUACCGGGCACCGUAAAUGUCCGACUGGAGCCGUUCGGGCGGCUAUAAACAGACCUCAGGCCCGAAGCGUGGCGGCACCUGCCGCCGGUGGUAAAAAAGAUCGGAAGAGCACACGUCU

Variants of: B1
Test: aptazyme ON/OFF ratio, guanine; higher = stronger switching; co-transcriptional cleavage with and without guanine

First: U7C U8C G9A U10A C12G C13U
Second: U7A U8C G9A U11G C12G C13A
The “aptazyme ON/OFF ratio” value of the first is lower: 1.16 for the first, 1.19 for the second.

First: U7A G9U U10A U11A
Second: U10A U11C C12U C13G
The “aptazyme ON/OFF ratio” value of the first is higher: 1.43 for the first, 1.08 for the second.

Compared with U7C U8A G9C U10C U11A C12A, U8G G9A U10A U11C C12A is higher in “aptazyme ON/OFF ratio” value: 1.03 for the first, 1.2 for the second.

Compared with U7C U8A G9U U11C C12A C13A, U7C G9A U10A U11C C12G is higher in “aptazyme ON/OFF ratio” value: 1.1 for the first, 1.35 for the second.

Going from U7C U8A G9A U11G C12U C13G to U7G G9U U10A U11G C12G C13U, the “aptazyme ON/OFF ratio” value rises from 1.14 to 1.25.

Going from U7C U8C U10A U11A C12U C13A to U7C U8G G9A U10G C12A C13G, the “aptazyme ON/OFF ratio” value falls from 1.13 to 1.08.

Compared with U7A U8G G9C U10G U11C C12G, U7C G9C U10G C12U C13A is lower in “aptazyme ON/OFF ratio” value: 1.3 for the first, 1.11 for the second.

Going from U7A G9A U10C U11C C12G C13U to U7C U8G G9A U11G C12A, the “aptazyme ON/OFF ratio” value rises from 1.04 to 1.09.

First: U7G U8G G9U U11A C12A C13G
Second: U7C G9A U10C U11C C12U C13G
The “aptazyme ON/OFF ratio” value of the first is higher: 1.13 for the first, 1.04 for the second.

Compared with U7C U8A U10G U11A C12U C13U, U7G U8A G9A U10A U11G C13U is lower in “aptazyme ON/OFF ratio” value: 1.33 for the first, 1.16 for the second.

Compared with U8C G9U U10C U11A C12A C13G, U7A U8A G9C U10C U11C C12A C13A is lower in “aptazyme ON/OFF ratio” value: 1.08 for the first, 1 for the second.

Compared with U8A G9C U10A U11G C12A C13G, U7C U8C G9A U10C U11G C12G is higher in “aptazyme ON/OFF ratio” value: 1.26 for the first, 1.36 for the second.

Compared with U7C U8A G9U U10C U11C C12A, U7A U8G G9C U10A U11A C12G C13G is higher in “aptazyme ON/OFF ratio” value: 1.06 for the first, 1.36 for the second.

Compared with U7A U8G G9C U10A U11A C12G C13A, U7A G9U U10C U11G C12A C13G is higher in “aptazyme ON/OFF ratio” value: 1.15 for the first, 1.2 for the second.

Compared with U7G U8A G9A U10C U11A C12U, U7C U8G U10A U11G C12G is higher in “aptazyme ON/OFF ratio” value: 1.08 for the first, 1.23 for the second.

Going from U7G U8C G9A U10C C12A C13A to U7A U8A G9C U11G C13U, the “aptazyme ON/OFF ratio” value rises from 1.12 to 1.31.

Compared with U7C G9U U10C U11C C12U C13G, U7G U8C G9C U10C U11C is higher in “aptazyme ON/OFF ratio” value: 1.02 for the first, 1.05 for the second.

Compared with U7G U8C G9C U10C U11C C12U, U7G U8C G9A U10G C12G C13G is higher in “aptazyme ON/OFF ratio” value: 1.02 for the first, 1.05 for the second.

Going from U7C U8C U11C C13G to G9U U10A U11A C12A C13U, the “aptazyme ON/OFF ratio” value rises from 1.12 to 1.41.

Compared with U7C U8G G9C U10A C12A C13A, U7C U8G G9C U10A C12A C13G is lower in “aptazyme ON/OFF ratio” value: 1.22 for the first, 1.1 for the second.

First: U7G U8G G9U U10C U11C C12A
Second: U8A G9U U10A U11C C12A C13U
The “aptazyme ON/OFF ratio” value of the first is higher: 1.46 for the first, 1.25 for the second.

First: U7C U8A U10G U11C C12G C13G
Second: U7G U8A U10C U11A C12A
The “aptazyme ON/OFF ratio” value of the first is lower: 1.14 for the first, 1.32 for the second.

Compared with U8C G9U U10G U11A C12A C13G, U7A G9A U10A U11A C12G is lower in “aptazyme ON/OFF ratio” value: 1.17 for the first, 1.15 for the second.

First: U7C U10G U11C C12G
Second: U7G U8A G9U U10C C12G C13G
The “aptazyme ON/OFF ratio” value of the first is higher: 1.52 for the first, 1.29 for the second.

First: U7G G9C U10G U11A C12U C13U
Second: U7A G9U U10G U11A C12U C13U
The “aptazyme ON/OFF ratio” value of the first is lower: 1.23 for the first, 1.26 for the second.

First: U7G G9U U10G C13A
Second: G9A U10C U11A C13G
The “aptazyme ON/OFF ratio” value of the first is higher: 1.39 for the first, 1.14 for the second.

Compared with U7A U10G U11G C12A C13A, U7A G9A C12G is higher in “aptazyme ON/OFF ratio” value: 1.19 for the first, 2.38 for the second.

Compared with U8G G9C U11C C12A, U7G G9A U10A U11A C12G C13A is higher in “aptazyme ON/OFF ratio” value: 1.05 for the first, 1.1 for the second.

Going from U7G U8C G9C U10A U11C C12G C13G to U7C U10C U11A C12U C13A, the “aptazyme ON/OFF ratio” value rises from 1.14 to 1.28.

First: U7G U8C G9C U10G U11A C12G C13G
Second: U7G U8A G9U U10A C12U C13U
The “aptazyme ON/OFF ratio” value of the first is higher: 1.21 for the first, 1.07 for the second.

Going from U7G U8A G9U U10G U11C C12G C13U to U8C G9U U10A U11C C13U, the “aptazyme ON/OFF ratio” value falls from 1.21 to 1.02.

Compared with U8C G9A U10C U11G C12G C13G, U7G U8A G9C U11G C13A is lower in “aptazyme ON/OFF ratio” value: 1.23 for the first, 1.06 for the second.

Compared with U7G U8A U10C U11G C12G C13G, U8A G9C U10A U11A C13U is higher in “aptazyme ON/OFF ratio” value: 1.11 for the first, 1.22 for the second.

Going from U7C G9A U10A C13G to U7A U8A G9A C12A C13A, the “aptazyme ON/OFF ratio” value rises from 1.03 to 1.06.

U7A U8A G9U U10A U11A C13U and U7C U8C G9A U10G C13A are the same in “aptazyme ON/OFF ratio” value: 1.27 for the first, 1.27 for the second.

Compared with U7G U8A G9C U11A C12A C13G, U7A U8A G9U U10C C12U is higher in “aptazyme ON/OFF ratio” value: 1.05 for the first, 1.24 for the second.

Going from U7A U8G G9A U10C C12U C13U to U7C U8A G9U U10G U11A C12A C13A, the “aptazyme ON/OFF ratio” value rises from 1.27 to 1.35.

Going from U7C G9A U10C U11A C12U C13U to U7A G9C U10A U11G, the “aptazyme ON/OFF ratio” value falls from 1.39 to 1.09.

Going from U8C G9U U10C C13G to U7A U10C U11G C13G, the “aptazyme ON/OFF ratio” value rises from 1.04 to 1.2.

First: G9C U10G U11C C12A C13U
Second: U7A U8C G9A U10C C12A C13U
The “aptazyme ON/OFF ratio” value of the first is higher: 1.25 for the first, 1.13 for the second.

Going from U7A U8A G9A U10G U11A C13U to U7C U8G G9U U10A U11A C12A C13U, the “aptazyme ON/OFF ratio” value rises from 0.974 to 1.24.

With U7C U8G G9U U10A U11A C12A C13G the “aptazyme ON/OFF ratio” value was 1.14.
